Source: patent US20110301228A1

Biological target: 5-FAM/QXL520 labeled MMP substrate FRET peptide (SensoLyte 520 MMP-1 Assay Kit, AnaSpec)
Test: cell-based or functional assay

For “recombinant human MMP1 (wild-type), secreted by AdhGRE.MMP1-infected HTM cells and activated with APMA (active form, 41 kDa) (from UniProt P03956 100-469) (enzyme)”, which relative fluorescence units released on cleavage of the FRET peptide (medium of AdhGRE.MMP1-infected, DEX-treated cells) (relative fluorescence units) is on record?
The relative fluorescence units released on cleavage of the FRET peptide (medium of AdhGRE.MMP1-infected, DEX-treated cells) (relative fluorescence units) was 59000.

And the relative fluorescence units released on cleavage of the FRET peptide (medium of AdhGRE.MMP1-infected, untreated cells) (relative fluorescence units)?
The relative fluorescence units released on cleavage of the FRET peptide (medium of AdhGRE.MMP1-infected, untreated cells) (relative fluorescence units) was 5710.
